Data from US8501696.

Tests used:
[1] = molecular target: human gp130 on the BAF3 cell surface (human) (UniProt P40189); experiment: cell-based or functional assay
[2] = molecular target: Hyper-IL-6 (designer cytokine consisting of covalently linked IL-6 and sIL-6R) (human) (UniProt P08887); experiment: SPR; details: Fc fusion
Target sequence in this assay (P08887 20-323, chain 1 of 2): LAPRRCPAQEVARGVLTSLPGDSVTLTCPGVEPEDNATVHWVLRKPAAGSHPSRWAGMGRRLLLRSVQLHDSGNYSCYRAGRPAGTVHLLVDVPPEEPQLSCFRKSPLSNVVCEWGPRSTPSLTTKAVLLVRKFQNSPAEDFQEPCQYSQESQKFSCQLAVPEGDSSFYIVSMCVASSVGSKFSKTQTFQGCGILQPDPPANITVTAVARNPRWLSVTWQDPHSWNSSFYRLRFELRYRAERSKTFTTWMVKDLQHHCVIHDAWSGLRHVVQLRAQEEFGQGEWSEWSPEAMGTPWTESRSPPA
Target sequence in this assay (P05231 30-212, chain 2 of 2, further chain): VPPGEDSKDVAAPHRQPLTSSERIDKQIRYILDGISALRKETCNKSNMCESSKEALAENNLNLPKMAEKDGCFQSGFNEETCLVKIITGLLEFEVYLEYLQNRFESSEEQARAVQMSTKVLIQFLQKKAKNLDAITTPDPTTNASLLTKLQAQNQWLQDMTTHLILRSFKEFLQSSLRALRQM

[3] = molecular target: Hyper-IL-6 (designer cytokine consisting of covalently linked IL-6 and sIL-6R) (human) (UniProt P08887); experiment: cell-based or functional assay
Target sequence in this assay (P08887 20-323 limits assumed, chain 1 of 2): as the sequence (P08887 20-323, chain 1 of 2) above
Target sequence in this assay (P05231 30-212 limits assumed, chain 2 of 2, further chain): as the sequence (P05231 30-212, chain 2 of 2, further chain) above

[4] = molecular target: human IL-6/sIL-6R complex (interleukin-6 plus soluble interleukin-6 receptor) (human) (UniProt P05231); experiment: cell-based or functional assay
[5] = molecular target: Hyper-IL-6 (designer cytokine consisting of covalently linked IL-6 and sIL-6R) (human) (UniProt P08887); experiment: SPR, ProteOn XPR36, mutein immobilised, Hyper-IL-6 80 to 2.5 nM in flow, 25 C
Target sequence in this assay (P08887 20-323 limits assumed, chain 1 of 2): as the sequence (P08887 20-323, chain 1 of 2) above
Target sequence in this assay (P05231 30-212 limits assumed, chain 2 of 2, further chain): as the sequence (P05231 30-212, chain 2 of 2, further chain) above

Sequence of human IL-6/sIL-6R complex (interleukin-6 plus soluble interleukin-6 receptor) (human) (P05231 30-212 limits assumed, chain 1 of 2): as the sequence (P05231 30-212, chain 2 of 2, further chain) above
Sequence of human IL-6/sIL-6R complex (interleukin-6 plus soluble interleukin-6 receptor) (human) (P08887 20-358 limits assumed, chain 2 of 2, further chain): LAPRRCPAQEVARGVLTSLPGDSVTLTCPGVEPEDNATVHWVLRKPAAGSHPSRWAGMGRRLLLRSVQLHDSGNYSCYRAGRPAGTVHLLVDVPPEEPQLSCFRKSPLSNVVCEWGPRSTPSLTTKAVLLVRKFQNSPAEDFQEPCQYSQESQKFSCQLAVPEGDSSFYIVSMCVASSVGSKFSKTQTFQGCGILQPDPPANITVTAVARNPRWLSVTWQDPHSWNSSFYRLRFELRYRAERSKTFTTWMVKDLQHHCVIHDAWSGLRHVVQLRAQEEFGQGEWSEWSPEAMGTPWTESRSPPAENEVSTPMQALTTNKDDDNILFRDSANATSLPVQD
Sequence of human gp130 on the BAF3 cell surface (human) (P40189 23-918): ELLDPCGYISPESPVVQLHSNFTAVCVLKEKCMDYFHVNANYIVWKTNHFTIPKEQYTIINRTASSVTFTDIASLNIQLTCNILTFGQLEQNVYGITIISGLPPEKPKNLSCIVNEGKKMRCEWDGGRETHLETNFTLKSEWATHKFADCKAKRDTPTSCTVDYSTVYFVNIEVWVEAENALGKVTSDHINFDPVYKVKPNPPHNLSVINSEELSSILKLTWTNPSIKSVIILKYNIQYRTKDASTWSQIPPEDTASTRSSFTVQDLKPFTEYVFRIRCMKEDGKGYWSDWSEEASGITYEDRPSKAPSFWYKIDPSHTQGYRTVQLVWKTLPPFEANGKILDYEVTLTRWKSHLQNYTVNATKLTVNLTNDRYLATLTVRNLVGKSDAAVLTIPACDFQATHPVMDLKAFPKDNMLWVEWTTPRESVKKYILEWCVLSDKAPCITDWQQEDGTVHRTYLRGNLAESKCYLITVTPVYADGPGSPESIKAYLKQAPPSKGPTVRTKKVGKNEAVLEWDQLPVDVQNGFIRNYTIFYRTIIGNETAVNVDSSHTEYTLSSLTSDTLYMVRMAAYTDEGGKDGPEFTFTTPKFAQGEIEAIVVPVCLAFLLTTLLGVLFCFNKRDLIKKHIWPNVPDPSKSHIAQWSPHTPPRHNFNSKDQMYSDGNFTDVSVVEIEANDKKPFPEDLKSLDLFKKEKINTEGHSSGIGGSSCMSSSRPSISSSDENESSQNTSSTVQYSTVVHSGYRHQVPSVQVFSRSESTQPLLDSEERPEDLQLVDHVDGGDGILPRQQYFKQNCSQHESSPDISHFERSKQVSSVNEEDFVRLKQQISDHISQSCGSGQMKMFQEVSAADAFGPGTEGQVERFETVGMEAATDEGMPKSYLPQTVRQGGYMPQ

With “murine IL-6/sIL-6R complex (from UniProt P08505 25-211; P22272 20-364) (ligand)” the amount needed for the same proliferation signal in BAF3/gp130 cells, against human IL-6/sIL-6R [1] was 3 fold.
Work on “sgp130Fc triple mutein Thr102Tyr/Gln113Phe/Asn114Leu (T102Y/Q113F/N114L) (from UniProt P40189 23-619)” yielded a Kd [2] of 0.122 nM.
“sgp130Fc triple mutein Thr102Tyr/Gln113Phe/Asn114Leu (T102Y/Q113F/N114L) (from UniProt P40189 23-619) (Fc fusion)” was tested, and the IC50 of inhibition of BAF3/gp130 proliferation, fold lower than wild type sgp130Fc (Cell Titer-Blue assay) [3] was greater than 3 fold, the IC50 of inhibition of BAF3/gp130 proliferation, fold lower than wild type sgp130Fc (MTS assay) [4] was 3 fold and the fold increase of the affinity constant KD against wild type sgp130Fc [5] was 4 fold.
